Measured values reported in patent publication US20180118848A1 (Regeneron, published 2018).
Residue numbers refer to the chain shown, from its start. Numbers in names are those of the source.

B1: BSMUC16/CD3-002 (bispecific antibody, V domains shown)
VH 1: QVQLVESGGGLVKPGGSLRLSCAASGFTFSNYYMSWVRQAPGKGLEWISYISGRGSTIFYADSVKGRITISRDNAKNSLFLQMNSLRAEDTAVYFCVKDRGGYSPYWGQGTLVTVSS
VH 2: EVQLVESGGGLVQPGRSLRLSCAASGFTFDDYSMHWVRQAPGKGLEWVSGISWNSGSIGYADSVKGRFTISRDNAKNSLYLQMNSLRAEDTALYYCAKDGSGYGKFYYYGMDVWGQGTTVTVSS
VL: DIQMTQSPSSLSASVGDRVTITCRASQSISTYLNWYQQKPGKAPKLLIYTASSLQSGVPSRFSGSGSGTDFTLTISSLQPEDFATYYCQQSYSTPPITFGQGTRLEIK
notes: Anti-MUC16 HCVR of H1H8767P, anti-CD3 HCVR CD3-VH-G5, common light chain of H1H8767P; also called anti-MUC16xCD3 bispecific antibody with CD3-VH-G5 arm
B2: H2M7135N (antibody, mouse IgG2, V domains shown)
VH: EVQLVESGGGLVQAGGSLRLSCAASGFTFSYHEMNWVRQAPGKGLEWVSYIGSRGTTKHYADPVKGRFTISRDNAKNSLYLQMNSLRAEDTAVYYCASEVGSILGYSMDVWGQGTTVTVSS
VL: DIQMTQSPSSLSASVGDRVTITCRASQSVSRYLNWCQQKPGKAPKLLTYAASSLQSGVPSRFSGSGSGTDFTLTISSLQPEDFAAYFCQQSYSTPPITFGQGTRLEIK
notes: Human variable regions, mouse IgG2 constant region
B3: H1M7137N (antibody, mouse IgG1, V domains shown)
VH: QVQLQESGPGLVKPSETLSLTCTVSGGAINTYYWSWIRQPPGKGLEWIGYIYYRGNTNYNPSLRSRVTISVDTSKNQFFLKLRSVTVADSAVYFCARGWNYRAEYFQHWGQGTVVTVSS
VL: not shown
notes: Human variable regions, mouse IgG1 constant region
B4: H2M7138N (antibody, mouse IgG2, V domains shown)
VH: QVQLVQSGAEVKKPGASVKVSCKASGYTFTSSDINWVRQATGQGLEWVGWMNPNYGYTGSARKFQDRVTMTRNTSLSTAYLELHSLRSEDTAVYYCARVTYCSSVTSCFRPFTYWGQGTLVTVSA
VL: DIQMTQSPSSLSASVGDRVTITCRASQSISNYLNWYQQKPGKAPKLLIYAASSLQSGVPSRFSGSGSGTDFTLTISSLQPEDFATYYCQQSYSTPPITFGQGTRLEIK
notes: Human variable regions, mouse IgG2 constant region; also called H2aM7138N
B5: H3M9524N (antibody, mouse IgG3, V domains shown)
VH: QVQLQQWGAGLLKPSETLSLTCAVYGGSFSDYYWSWIRQPPGKGLEWIGEINHRGKTNYNPSLKSRVSISVDPSKNQFSLKLSSVTAADTAVYYCARQGWNYAIFDYWGQGILVPVSS
VL: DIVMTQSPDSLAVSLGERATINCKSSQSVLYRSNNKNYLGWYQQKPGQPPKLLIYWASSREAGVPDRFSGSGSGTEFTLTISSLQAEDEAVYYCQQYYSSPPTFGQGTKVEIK
notes: Human variable regions, mouse IgG3 constant region
B6: H3M9525N (antibody, mouse IgG3, V domains shown)
VH: B5 VH with D31G, R54S, N58T, N60S, S68T, P73T, N76S, W100L, I112T, P115T
VL: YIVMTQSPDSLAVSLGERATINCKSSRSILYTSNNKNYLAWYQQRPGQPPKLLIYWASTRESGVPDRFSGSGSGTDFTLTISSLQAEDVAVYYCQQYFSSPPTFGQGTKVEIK
notes: as for B5
B7: H1M9528N (antibody, mouse IgG1, V domains shown)
VH: QMQLQESGPGLVKPSETLSLTCTVSGGSISSYYWNWIRQPPGKGLEWIGYIYYSGNNFNPSLKSRVTISVDTSKNQFSLKLSSVTAADTAVYYCARAFHWNYEFDYWGQGTLVTVSS
VL: EIVLTQSPGTLSLSPGERATLSCRASQSVSNNYLAWYQQKPGQAPRLLLYGASSRTTDIPDRFSGSGSGTDFTLTISRLEPEDFAVYYCQQYDNSPLTFGGGTKVEIR
notes: as for B3
B8: H3M9529N (antibody, mouse IgG3, V domains shown)
VH: QVQLQQWGAGLLKPSETLSLTCAVYGGSFSGFYWSWIRQPPGKGLEWIGEINHSGSAKYNPSLKNRVIISIDTSKNQFSLKLDSVTAADTAVYNCARQGWNFAIFDYWGQGTLVDVSS
VL: DIVMTQSPDSLAVSLGGRATINCKSSQSVLHSSYNKDHLAWYQQRPGQPPKLLIYWASTRESGVPDRFSGSGSGTDFTLTISSLQAEDVAVYYCQQYNILPPTFGQGTRVEIK
notes: as for B5
B9: H2M9538N (antibody, V domains shown)
VH: QVQLQESGPGLVKPSETLSLTCTVSGGSISSYYWSWIRQPPGKGLEWIGYIYYSGSTNYNPSLKSRVTISVDTSKNQFSLKLSSVTAADTAVYYCARKKLVFDYWGQGTLVTVSS
VL: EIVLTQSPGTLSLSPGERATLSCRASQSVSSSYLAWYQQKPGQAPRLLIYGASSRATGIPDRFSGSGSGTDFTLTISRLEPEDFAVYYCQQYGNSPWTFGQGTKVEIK
B10: H1H8755P (antibody, human IgG1, V domains shown)
VH: EVQLVESGGGLVQPGRSLRLSCAASGFTFNDYAMHWVRQSPGKGLEWVSGIDWNGGSIDYADSVKGRFTISRDTAKNSLYLQMNSLKVEDTALYYCAKDIGHWNYIGGMDVWGQGTTVTVSS
VL: DIQMTQSPSSLSASVGDRVTITCRASQSINIYLNWYQQKPGKAPKFLIYAASSLQTGVPSRFSGSGSGTDFTLTISSLEPEDFATYYCQHSYSTPPITFGQGTRLEIK
notes: Human IgG1 (H1H: hIgG1)
B11: H1H8770P (antibody, human IgG1, V domains shown)
VH: QVQLVESGGGVVQPGRSLRLSCAASGFTFSDHGMHWVRQAPGKGLEWVAVISYHGSNKHYADSVKGRFTISRDNSKNALYLQMNSLRPEDTAMYYCAKDGYDFWNGYSLFDYWGQGTLVTVSS
VL: B10 VL with N30S, I31N, F46L, A50T, S53N, Q55L, T56S, E79Q, H90Q, R104K
notes: Human IgG1
B12: H1H8783P (antibody, human IgG1, V domains shown)
VH: B11 VH with G33A, S56T, N57D, H59Q, A61G, G106A
VL: B10 VL with N30S, I31N, F46L, A50T, Q55L, T56S, E79Q, H90Q
notes: Human IgG1
B13: H1H8790P (antibody, human IgG1, V domains shown)
VH: EVQLVESGGGLVQPGGSLRLSCEASGFTFSNYAMSWVRQAPGKGLEWVSGMSGSGTYPYYADSVKGRFTISRDNSKNMLYLQMNSLRVKDTAVYYCAKDGVDTAMILDTFDLWGQGTMVTVSS
VL: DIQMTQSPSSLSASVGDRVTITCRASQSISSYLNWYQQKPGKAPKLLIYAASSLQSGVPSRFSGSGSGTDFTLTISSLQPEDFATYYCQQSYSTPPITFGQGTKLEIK
notes: Human IgG1
B14: H1H8794P (antibody, V domains shown)
VH: QVQLVESGGGLVKPGGSLRLSCAASGFTFRDYSMSWIRQAPGKGLEWVSYVTFFNSAIYYADSVKGRFTISRDNAKNSLYLQMNSLRAEDTAVYYCAREREPIVGGFDYWGQGTLVTVSS
VL: B10 VL with I31S, F46L, T56G, S65G, S76T, E79Q, Y86F, H90Q, T94S
notes: Human IgG1
B15: H1H9524N (antibody, human IgG1, V domains shown)
VH: B5 VH
VL: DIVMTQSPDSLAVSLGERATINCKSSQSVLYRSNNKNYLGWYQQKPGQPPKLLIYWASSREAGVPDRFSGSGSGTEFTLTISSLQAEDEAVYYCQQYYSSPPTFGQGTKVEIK
notes: Human IgG1 form of H3M9524N
B16: H1H9525N (antibody, human IgG1, V domains shown)
VH: B5 VH with D31G, R54S, N58T, N60S, S68T, P73T, N76S, W100L, I112T, P115T
VL: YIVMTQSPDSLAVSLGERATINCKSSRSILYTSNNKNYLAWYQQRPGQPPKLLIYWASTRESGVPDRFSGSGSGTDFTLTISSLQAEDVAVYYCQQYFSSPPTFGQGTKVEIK
notes: Human IgG1 form of H3M9525N
B17: H1H9528N (antibody, human IgG1, V domains shown)
VH: B7 VH
VL: B7 VL
notes: Human IgG1 form of H1M9528N
B18: H1H9529N (antibody, human IgG1, V domains shown)
VH: B8 VH
VL: B8 VL
notes: Human IgG1 form of H3M9529N
B19: H1H9538N (antibody, V domains shown)
VH: B9 VH
VL: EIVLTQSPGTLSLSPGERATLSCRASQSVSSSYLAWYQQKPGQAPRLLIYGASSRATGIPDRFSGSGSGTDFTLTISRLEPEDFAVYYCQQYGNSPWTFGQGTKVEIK

These binders were tested against human MUC16 (mucin 16) (human) (assay: cell-based or functional assay).

Binder | OVCAR3 cell depletion EC50 [nM]
B1 | 0.0306

Each binder was assayed against T1, human MUC16 (mucin 16) (human) (assay: MSD ECL cell binding, RLU ratio OVCAR-3 vs SK-OV-3, 16.7 nM Ab).
T1 construct: Endogenously expressed on human tumour cell lines; also called hMUC16
Protocol: (§1) The ability of anti-MUC16 antibodies to bind specifically to endogenously expressing MUC16 on the human ovarian carcinoma cell line (OVCAR-3) was evaluated via an electrochemiluminescence based detection assay (Meso Scale Discovery (MSD), Rockville, Md.). […] Detached cells were then washed once in 1×PBS supplemented with Ca²⁺/Mg²⁺ and counted (Cellometer Auto T4 cell counter, Nexcelom Bioscience, Lawrence, Mass.). Approximately 1.0×10⁴ cells were plated in MULTI-ARRAY 96-well carbon electrode plates (MSD) and incubated for 1 h at 37° C. […] Next, serial dilutions of anti-MUC16 or control antibodies (0.85 pM-50 nM) and no-antibody buffer controls were added to the plate-bound cells and incubated for 1 h at room temperature (RT). Plates were then washed to remove the unbound antibodies using an AquaMax2000 plate washer (MDS Analytical Technologies, Sunnyvale, Calif.). Plate-bound antibodies were detected with a SULFO-TAG™-conjugated anti-human kappa light chain antibody (Regeneron) or a SULFO-TAG™-conjugated anti-mouse IgG antibody (Jackson Immunoresearch, West Grove, Pa.) for 1 h at RT. Post-wash, plates were developed with Read Buffer (MSD) according to manufacturer's protocol and luminescent signals were recorded with a SECTOR Imager 6000 (MSD) instrument.
(§2) Luminescence intensity, measured in relative light units (RLU), for the two cell lines was recorded to indicate the binding intensity of each antibody.

Binder | Ratio anti-MUC16 Binding OVCAR-3/SK-OV-3 [ratio]
B2 | 5
B3 | 29
B4 | 50
B5 | 57
B6 | 51
B7 | 120
B8 | 99
B9 | 26
B10 | 5
B11 | 3
B12 | 4
B13 | 3
B14 | 3
B15 | 48
B16 | 21
B17 | 18
B18 | 74
B19 | 13

The binders below were run against T1, human MUC16 (mucin 16) (assay: MSD ECL cell binding, RLU ratio OVCAR-3 vs SK-OV-3, 1.9 nM Ab).
Protocol: as §1, §2

Binder | Ratio anti-MUC16 Binding OVCAR-3/SK-OV-3 [ratio]
B2 | 30
B3 | 77
B4 | 82
B5 | 81
B6 | 137
B7 | 153
B8 | 143
B9 | 89
B10 | 13
B11 | 9
B12 | 11
B13 | 8
B14 | 8
B15 | 20
B16 | 4
B17 | 41
B18 | 109
B19 | 12

These binders were tested against T1, human MUC16 (mucin 16) (assay: FACS binding titration on OVCAR3 (MUC16+) cells).

Binder | EC50 [nM]
B1 | 2.69

What follows are binders tested against T1, human MUC16 (mucin 16) (assay: cell-based or functional assay).

Binder | PEO-1 cell depletion EC50 [nM]
B1 | 0.0675

What follows are binders tested against T1, human MUC16 (mucin 16) (assay: FACS binding titration on PEO-1 (MUC16+) cells).
Protocol: A. Briefly, flow cytometric analysis (i.e. fluorescence-activated cell sorting, or FACS) was utilized to determine binding of bispecific antibodies to Jurkat cells or cells expressing human MUC16, followed by detection with a phycoerythrin (PE)-labeled or APC-labeled anti-human IgG antibody. […] After incubation, the cells were washed twice with cold PBS containing 1% filtered FBS and a PE-conjugated or APC-conjugated anti-human secondary antibody was added to the cells and incubated for an additional 30 minutes. Wells containing no antibody or secondary only were also used as controls. After incubation, cells were washed, re-suspended in 200 μL cold PBS containing 1% filtered FBS and analyzed by flow cytometry on a BD FACS Canto II.
B. In separate experiments with analogous conditions to that described above, flow cytometric analysis (or FACS) was utilized to determine binding of select bispecific antibodies to Jurkat cells, PEO-1, OVCAR3-Luc and cynomolgus T cells. For the titration analysis, serial dilution of selected MUC16×CD3 bispecific antibodies, a first isotype control antibody (a human chimeric IgG4 antibody that binds an irrelevant human antigen with no cross-reactivity to human or cynomolgus CD3) and a second isotype control antibody (a human chimeric IgG4 antibody that binds an irrelevant human antigen with no cross-reactivity to human MUC16), ranging from 66.6 nM to 0.001 nM.
For FACS analysis, cells were gated by forward scatter height vs. forward scatter area for single events selection, followed by side and forward scatters. The EC50 for cell binding titration was determined using PRISM™ software (GraphPad Software, Inc., La Jolla, Calif.). Values were calculated using 4-parameter non-linear regression analysis. (Liu, J., et al. 2005, Biotechnol Letters 27:1821-1827).

Binder | EC50 [nM]
B1 | 3.13
